Source: US20240294670A1 (University of Texas, published 2024)

Columns and labels:
Assay in all cases: anti-His co-IP of rCHI3L1 from Kupffer cell lysate, MS; listed under 'proteins bound to CHI3L1'
Q3T9S7_MOUSE = target: T1, Q3T9S7_MOUSE (mouse, UniProt Q3T9S7 22-1179)
T1 construct: also called tr|Q3T9S7|Q3T9S7_MOUSE
T1 sequence: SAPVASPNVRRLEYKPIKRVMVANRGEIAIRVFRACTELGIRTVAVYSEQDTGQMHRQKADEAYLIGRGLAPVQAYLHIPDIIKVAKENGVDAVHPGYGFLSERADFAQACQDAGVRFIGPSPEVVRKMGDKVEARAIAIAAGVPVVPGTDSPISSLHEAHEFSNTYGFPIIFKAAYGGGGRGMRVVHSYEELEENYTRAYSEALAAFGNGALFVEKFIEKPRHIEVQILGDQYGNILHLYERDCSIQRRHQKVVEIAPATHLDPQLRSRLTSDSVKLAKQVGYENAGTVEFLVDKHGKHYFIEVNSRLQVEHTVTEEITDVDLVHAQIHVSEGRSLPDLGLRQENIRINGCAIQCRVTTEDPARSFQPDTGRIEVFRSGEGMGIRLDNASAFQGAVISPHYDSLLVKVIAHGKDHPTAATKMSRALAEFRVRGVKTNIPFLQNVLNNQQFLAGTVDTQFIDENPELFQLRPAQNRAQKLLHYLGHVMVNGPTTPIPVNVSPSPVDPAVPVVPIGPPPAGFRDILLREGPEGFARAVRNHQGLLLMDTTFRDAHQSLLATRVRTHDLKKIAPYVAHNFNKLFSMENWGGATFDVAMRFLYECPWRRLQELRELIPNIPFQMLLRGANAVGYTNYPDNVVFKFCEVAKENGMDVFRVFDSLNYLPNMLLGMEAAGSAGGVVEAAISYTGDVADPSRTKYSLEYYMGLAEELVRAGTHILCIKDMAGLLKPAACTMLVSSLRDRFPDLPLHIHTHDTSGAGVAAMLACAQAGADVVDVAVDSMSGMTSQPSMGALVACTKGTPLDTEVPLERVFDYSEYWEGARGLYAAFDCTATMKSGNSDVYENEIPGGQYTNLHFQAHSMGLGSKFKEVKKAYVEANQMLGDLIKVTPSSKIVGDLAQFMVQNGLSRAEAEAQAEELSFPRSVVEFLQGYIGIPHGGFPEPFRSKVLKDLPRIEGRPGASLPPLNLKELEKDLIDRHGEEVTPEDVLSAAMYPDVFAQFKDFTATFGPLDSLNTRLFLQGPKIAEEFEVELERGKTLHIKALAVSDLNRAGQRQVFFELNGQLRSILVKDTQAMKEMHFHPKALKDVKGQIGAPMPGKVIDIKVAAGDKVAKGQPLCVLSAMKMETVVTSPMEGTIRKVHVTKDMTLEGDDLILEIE
Method: (§1) CHI3L1 interacts with CD44 on KCs. To further understand how CHI3L1 mediates the function of KCs to recruit platelets, the inventors set out to identify its receptor on KCs. They isolated KCs from WT mice treated with APAP for 3 h and incubated the cells with His-tagged rCHI3L1. The cell lysate was subjected to immunoprecipitation using an anti-His antibody. The “pulled down” fraction was subjected to LC/MS analyses. A partial list of proteins identified, including CHI3L1 itself, is shown in (Extended Data Table 1). Because CD44 is a cell membrane protein, the inventors decided to investigate it is a receptor for CHI3L1. They performed/immunoprecipitation experiments using liver homogenates obtained from WT and CD44^{-/-} mice after APAP treatment. […] Moreover, the inventors incubated rhCHI3L1 with human CD44 and then immunoprecipitated with an anti-CD44 antibody. The data confirmed a direct binding between CHI3L1 and CD44 (FIG. 3C). Consistent with the notion that many cell types express CD44, they detected CD44 express on various hepatic non-parenchymal cells (NPCs) except B cells and DCs (summarized in Extended Data Table 2). However, when they incubated liver NPCs with His-tagged rCHI3L1, the inventors observed that the only CD44-expressing cells that could bind to CHI3L1 were KCs (FIG. 3D).

Q3UJ34_MOUSE = target: T2, Q3UJ34_MOUSE (mouse, UniProt Q3UJ34 1-412)
T2 construct: also called tr|Q3UJ34|Q3UJ34_MOUSE
T2 sequence: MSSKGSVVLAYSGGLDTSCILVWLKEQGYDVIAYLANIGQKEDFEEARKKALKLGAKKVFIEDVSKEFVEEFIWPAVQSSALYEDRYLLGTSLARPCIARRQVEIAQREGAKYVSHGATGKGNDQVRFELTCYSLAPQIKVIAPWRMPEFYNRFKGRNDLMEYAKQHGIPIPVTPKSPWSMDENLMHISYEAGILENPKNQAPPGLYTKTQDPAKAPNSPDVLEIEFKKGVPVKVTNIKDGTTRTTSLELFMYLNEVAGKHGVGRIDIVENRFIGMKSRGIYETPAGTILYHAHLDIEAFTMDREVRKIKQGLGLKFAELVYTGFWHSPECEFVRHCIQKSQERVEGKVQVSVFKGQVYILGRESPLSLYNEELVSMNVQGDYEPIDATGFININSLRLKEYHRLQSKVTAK
Method: as §1

Q546G4_MOUSE = target: T3, Q546G4_MOUSE (mouse, UniProt Q546G4 25-608)
T3 construct: also called sp|Q546G4|Q546G4_MOUSE
Method: as §1

Q3TF14_MOUSE = target: T4, Q3TF14_MOUSE (mouse, UniProt Q3TF14 2-432)
T4 construct: also called tr|Q3TF14|Q3TF14_MOUSE
T4 sequence: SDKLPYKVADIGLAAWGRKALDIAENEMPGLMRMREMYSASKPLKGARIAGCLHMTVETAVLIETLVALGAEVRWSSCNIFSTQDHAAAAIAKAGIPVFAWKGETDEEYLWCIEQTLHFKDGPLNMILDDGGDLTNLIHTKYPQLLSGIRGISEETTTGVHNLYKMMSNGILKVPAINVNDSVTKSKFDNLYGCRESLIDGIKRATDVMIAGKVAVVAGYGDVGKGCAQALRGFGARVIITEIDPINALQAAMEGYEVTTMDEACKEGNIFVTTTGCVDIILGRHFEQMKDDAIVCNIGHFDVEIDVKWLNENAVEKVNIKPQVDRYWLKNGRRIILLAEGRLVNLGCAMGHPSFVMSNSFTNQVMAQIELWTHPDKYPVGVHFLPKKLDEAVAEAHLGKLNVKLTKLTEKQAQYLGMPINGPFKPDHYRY
Method: as §1

Measured: binding result

B1: recombinant mouse CHI3L1 (ligand)
chain: not shown
notes: His-tagged; also called mCHI3L1; mChi3l1
binds: all assays above
